From article PMC8887465

Tests used:
[1] = target: Staphylococcus aureus PemK toxin, wild type (Staphylococcus aureus CH-91 (plasmid pCH91)); assay: SEC-MALS
PemK WT = target: T1, PemK WT (Staphylococcus aureus CH-91 (plasmid …, UniProt L7PFJ6 1-112)); assay: NMR titration
T1 sequence: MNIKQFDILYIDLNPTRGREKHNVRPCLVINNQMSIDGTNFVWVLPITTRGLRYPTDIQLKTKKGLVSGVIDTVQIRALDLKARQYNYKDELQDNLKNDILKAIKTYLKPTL

“Staphylococcus aureus PemK toxin, wild type (enzyme)” was tested, and the stoichiometry N [1] was 2.

B1: ssRNA UUdUAUUAA (ssRNA)
RNA: UUUAUUAA
modifications: deoxyuridine at position 3 (dU3), rest RNA
B1: binds (PemK WT).
